According to publication PMC6451337, “The Toxoplasma gondii dense granule protein TgGRA3 interacts with host Golgi and dysregulates anterograde transport” (Biology Open, 2019):

B1: GRA3_HA-Δ43-71 (domain or fragment, Toxoplasma gondii, UniProt B6KEU8 72-161, looked up)
chain: ESYSSATSGVQEATAPGAVLLDAIDAESDKVDNQAEGGERMKKVEEELSLLRRELYDRTDRPGLKRAVILSLATSAAIGGRMVSRTLRDN
notes: also called GST-HA-Δ43-71, after cleavage; source: E. coli BL21, captured on glutathione-Sepharose beads, cleaved with PreScission protease; not shown: GST, N-terminal, cleaved; HA, N-terminal, kept
B2: GRA3_(43-161), cleaved from GST (domain or fragment, Toxoplasma gondii, UniProt B6KEU8 43-161, looked up)
chain: ADQPENHQALAEPVTGVGEAGVSPVNEAGESYSSATSGVQEATAPGAVLLDAIDAESDKVDNQAEGGERMKKVEEELSLLRRELYDRTDRPGLKRAVILSLATSAAIGGRMVSRTLRDN
notes: amplified from parasite cDNA; Cloned at the BamHI site of pGEX6-P3; also called TgGRA3 recombinant protein; source: E. coli BL21, purified on glutathione-Sepharose, cleaved with PreScission protease; not shown: GST, N-terminal, cleaved

Tests used:
[1] = target: the molecule itself; assay: native gel or EMSA; proteins cleaved from glutathione-Sepharose beads with PreScission protease in 25 mM Tris pH 8, 1 mM DTT, 0.5 mM PMSF, 1 mM EDTA; 10% Tris-glycine native gel, unheated against heated; Coomassie Blue stain and Western blot
[2] = target: the molecule itself; assay: SEC; GRA3_(43-161) cleaved from GST with PreScission protease, Superdex 200 Increase 3.2/300 column, AKTA Micro FPLC; protein standards 12,000-200,000 for the standard curve

Protein | binding result [1] | stoichiometry N [2]
B1 | binds | –
B2 | – | 2
